Article PMC8348266, “Intrinsically disordered electronegative clusters improve stability and binding specificity of RNA-binding proteins”

Assays:
Nop15 no-linker [1] = molecular target: T1, Nop15 no-linker (Saccharomyces cerevisiae, UniProt P53927 40-191, del60-76); assay: fluorescence polarization; 150 mM NaCl; Nop15 FP: 10 nM RNA/DNA, 20 mM Tris-HCl pH 7.5, 0.02% Tween 20, 150 or 50 mM NaCl; SRSF3 FP: 10 mM MES pH 5.5, 50 mM Arg/Glu, 0.1 mM TCEP, 0.02% Tween 20; incubated 37 °C 30 min then 25 °C 20 min, read at RT; conditions: protein: recombinant, tags: N-terminal SUMO tag (pSMT3) cleaved with Ulp1, label: 5' fluorescein
T1 sequence: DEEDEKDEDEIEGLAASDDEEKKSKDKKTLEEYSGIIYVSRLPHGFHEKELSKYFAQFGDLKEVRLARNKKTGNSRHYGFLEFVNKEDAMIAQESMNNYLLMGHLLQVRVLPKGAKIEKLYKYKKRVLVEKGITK

Nop15 WT (1xENC) = molecular target: T2, Nop15 WT (1xENC) (Saccharomyces cerevisiae, UniProt P53927 40-191); assay: as above; conditions: protein: recombinant, tags: N-terminal SUMO tag (pSMT3) cleaved with Ulp1, label: 5' fluorescein
T2 sequence: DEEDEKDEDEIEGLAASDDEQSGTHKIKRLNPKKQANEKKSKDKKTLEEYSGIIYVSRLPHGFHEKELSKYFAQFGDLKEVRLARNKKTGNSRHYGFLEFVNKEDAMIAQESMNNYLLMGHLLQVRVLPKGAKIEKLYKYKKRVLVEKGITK

Nop15 2xENC [2] = molecular target: T3, Nop15 2xENC (Saccharomyces cerevisiae, UniProt P53927 39-49+39-191, internal_change); assay: as above; conditions: protein: recombinant; tags: N-terminal SUMO tag (pSMT3) cleaved with Ulp1; label: 5' fluorescein; hairpin with 8 bp stem and 9-nt single-stranded region
T3 sequence: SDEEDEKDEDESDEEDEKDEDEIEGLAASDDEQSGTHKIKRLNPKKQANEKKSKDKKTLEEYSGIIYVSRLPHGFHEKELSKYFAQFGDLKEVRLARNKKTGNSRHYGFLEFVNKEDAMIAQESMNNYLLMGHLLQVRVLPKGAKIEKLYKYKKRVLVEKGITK

Nop15 no-ENC [3] = molecular target: T4, Nop15 no-ENC (Saccharomyces cerevisiae, UniProt P53927 =SGGSSGKSGSG+50-191, internal_change); assay: as above; conditions: protein: recombinant, tags: N-terminal SUMO tag (pSMT3) cleaved with Ulp1, label: 5' fluorescein
T4 sequence: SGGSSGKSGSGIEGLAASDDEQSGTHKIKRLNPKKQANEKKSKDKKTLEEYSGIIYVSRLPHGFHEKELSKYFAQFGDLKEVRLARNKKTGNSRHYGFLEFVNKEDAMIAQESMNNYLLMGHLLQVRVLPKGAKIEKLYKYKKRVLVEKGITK

Nop15 no-ENC [4] = molecular target: T4, Nop15 no-ENC; assay: fluorescence polarization; 50 mM NaCl; Nop15 FP: 10 nM RNA/DNA, 20 mM Tris-HCl pH 7.5, 0.02% Tween 20, 150 or 50 mM NaCl; SRSF3 FP: 10 mM MES pH 5.5, 50 mM Arg/Glu, 0.1 mM TCEP, 0.02% Tween 20; incubated 37 °C 30 min then 25 °C 20 min, read at RT; conditions: protein: recombinant; tags: N-terminal SUMO tag (pSMT3) cleaved with Ulp1; label: 5' fluorescein; single strand
Nop15 no-linker [5] = molecular target: T1, Nop15 no-linker; assay: fluorescence polarization; ND, too weak for detection; Nop15 FP: 10 nM RNA/DNA, 20 mM Tris-HCl pH 7.5, 0.02% Tween 20, 150 or 50 mM NaCl; SRSF3 FP: 10 mM MES pH 5.5, 50 mM Arg/Glu, 0.1 mM TCEP, 0.02% Tween 20; incubated 37 °C 30 min then 25 °C 20 min, read at RT; conditions: protein: recombinant; tags: N-terminal SUMO tag (pSMT3) cleaved with Ulp1; label: 5' fluorescein; single strand
Nop15 2xENC [6] = molecular target: T3, Nop15 2xENC; assay: as above; conditions: protein: recombinant; tags: N-terminal SUMO tag (pSMT3) cleaved with Ulp1; label: 5' fluorescein; single strand
[7] = hairpin with 8 bp stem and 9-nt single-stranded region

UGAGUGAUACUCUUUGGAGUUAACUUGAAAUUGCU (structured_RNA) [ITS2 III.A 26-60]
Kd (Nop15 no-linker [1]; [7]): 0.583 ± 0.09 µM | Kd (Nop15 WT (1xENC); [7]): 215 ± 34 nM | Kd (Nop15 2xENC [2]): 1870 ± 270 nM | Kd (Nop15 no-ENC [3]; [7]): 173 ± 32 nM

AGAGAGAGA (ssDNA) [nonspecific ssDNA]
Kd (Nop15 no-ENC [4]): 1160 ± 150 nM | binding result (Nop15 no-linker [5]): no binding | binding result (Nop15 2xENC [6]): no binding

UUCAGAGCA (ssRNA) [nonspecific ssRNA]
Kd (Nop15 no-ENC [4]): 427 ± 98 nM | binding result (Nop15 no-linker [5]): no binding | binding result (Nop15 2xENC [6]): no binding

AGAGAGAGAGUCUCUCUCUC (structured_RNA) [nonspecific stem-loop RNA]
Kd (Nop15 no-linker [1]; hairpin, 8 bp stem): 14.1 ± 1.4 µM | Kd (Nop15 WT (1xENC); hairpin, 8 bp stem): 945 ± 65 nM | Kd (Nop15 no-ENC [3]; hairpin, 8 bp stem): 244 ± 18 nM
